A short description of this data set: soluble on expression in E. coli; label from the status in PepcDB or PDB records.
For “MGHHHHHHHHHHSSGHIEGRHMDINGVLLLDKPQGMSSNDALQKVKRIYNANRAGHTGALDPLATGMLPICLGEATKFSQYLLDSDKRYRVIARLGQRTDTSDADGQIVEERPVTFSAEQLAAALDTFRGDIEQIPSMYSALKYQGKKLYEYARQGIEVPREARPITVYELLFIRHEGNELELEIHCSKGTYIRTIIDDLGEKLGCGAHVIYLRRLAVSKYPVERMVTLEHLRELVEQAEQQDIPAAELLDPLLMPMDSPASDYPVVNLPLTSSVYFKNGNPVRTSGAPLEGLVRVTEGENGKFIGMGEIDDEGRVAPRRLVVEYPA”, the “soluble on expression in E. coli” value was “soluble”.

“MRRCIELAKNGLCNVAPNPMVGAVIVCDGLIIGEGYHIRCGEAHAEVNAIRSVKDKSLLSRSTIYVSLEPCSHYGKTPPCADLIIEKQIPRIVIGCQDPFSQVAGRGIQKLRDAGREVTVGVLEKECRYLIRRFITFNTLHRPFITLKWAESADHFIDVERTDGNPVVLSSPLTSMLVHKKRAETDAIMVGRRTALLDNPSLTVRNWYGRNPVRIVLDRALSLPHSLRLFDGEVPTIVFTAEKHPDKKNVTYRTIEFTQDILPQIMKVLYQQKIQSLLVEGGSQLLQSFIDAELWDEVYIEKCPCKLNSGVKAPEISDNFSYSTEKHFDRQIWHYVFEK”: the “soluble on expression in E. coli” value is reported as “not soluble”. For “MGSDKIHHHHHHMMDMLMSTPNYNASLLAMATAALNALDSSHAGAAHATEAQQSHFLCNWMAQALKDKSFDKAIAGELTLWVRQGRSMGSSAQLKRLLQTIRHQYSTLAEHTMGLGNALAKMLEDARQQDVIVYTDTPVKTKLKLDADGQSSIIVCADEYQQHIRDGELIKPISLFVRADEKFLAKLAFSHGLMLTQGDKKSSLIKHHKSYKLFPKNQLPSLALLTFH”, the “soluble on expression in E. coli” value is “not soluble”.

For “MGSDKIHHHHHHMKYDIPTMTAEAVSLLKSLISIPSISREETQAADFLQNYIEAEGMQTGRKGNNVWCLSPMFDLKKPTILLNSHIDTVKPVNGWRKDPFTPREENGKLYGLGSNDAGASVVSLLQVFLQLCRTSQNYNLIYLASCEEEVSGKEGIESVLPGLPPVSFAIVGEPTEMQPAIAEKGLMVLDVTATGKAGHAARDEGDNAIYKVLNDIAWFRDYRFEKESPLLGPVKMSVTVINAGTQHNVVPDKCTFVVDIRSNELYSNEDLFAEIRKHIACDAKARSFRLNSSRIDEKHPFVQKAVKMGRIPFGSPTLSDQALMSFASVKIGPGRSSRSHTAEEYIMLKEIEEAIGIYLDLLDGLKL”, the “soluble on expression in E. coli” value is on record as “not soluble”. Turning to “MESFELEDLTLWLIRDADEAEMWIDRWAVSYPVVQMSEASANGSTEAWQSALQTAFERIQGRHIAVVAHGAGAAAFLAWLYRADILTQKKLAGIILVSPRPDIFPDDAEHTFQRVRCPCRAALVVSEHGGVPHGWAQKQADLWNARLLVSPHSGSLNGMLGGWQWGMKLMQEMLLA”, the “soluble on expression in E. coli” value is on record as “not soluble”. On to “SLAGETINFCKGWKFHLGDAGKGASSSSYNDSQWRILNIPHDWSIEGTYKQFENGTDWQSGFLPAGISWYRKTFTIPSKWKNKKVQILFEGVYLNSEVWINGHWLGKRPNGYISFVYDLTPYLQEGKNQIAVKVDHSKALTGRWYTGSGIYRPVYLLVSNPTHIPYSGIHFRSKLQNKQSATYTLSIEIETQEKKPIKVKTYLQAPNGSIADTSEKIFVSSADSLCFLSGSIRKPLLWSPDSPNVYTLICQLTRDNKILDECRLPVGFRQLEFNPVSGFLLNGKSLKIKGVCDHHTVGAVGAAVPDDLLHYRLKLLKDMGCNAIRTSHNPFSPAFYNLCDTMGIMVLNEGLDGWNQPKAADDYGNYFDEWWQKDMTDFIKRDRNHPSIIMWSIGNEVTGATPEIQHNLVSLFHQLDPDRPVTQGGTDPTRGMKTDYQKKFNYLDIIGFNGNGEEIGELEHFHKNYPTLCAIATEVPHTYQTRGVYRSQTQWRRRDFPAPWEKGNINWEQFKHRVFPIPDLTEKECFPEESDYPYYQSSYDNASVRISARKSWQRTCSFPWLMGEFRWGSFDYLGEAEWPQRCGNFGIIDIAAIPKDAYFLYQSLWTDKPMVHLLPHWTHPGKEGKTIPVVIYTNCDAVELFINNVSLGSKPYTGEQLIWLVPYSPGKIEARGIKKGKIVATDCYQSAEAPHSVALASNKYSVKAGSDEVIRIEIDITDKNGIPCPYASNELSFHVSGPLRLLGVDNGNPTDMFPYQQPHCRCFRGKCVVLLQSDEEKGKGTLTVQGTKLVEKKLIIEVIEG”, for which the “soluble on expression in E. coli” value was “soluble”.

In the case of “MGSDKIHHHHHHMSQPLFPVVEVPDFISEDSQYDTQYKRSMKWNTELGDFVRDGAHRIKECDGKEAFAIWCFKIAQTERYRCLAYPDSIGTEMERAMDNDDEKTVESMVERTITDAIMVNPRAENVRDFQFTWEGDQMHVTFKVKGSNWDEEIEISL”, the “soluble on expression in E. coli” value was “not soluble”.

Regarding “MSWWKRIFSRSESSTTESNSASSLPAADLDDDLLVEVKNLVAITGPKMPYELARLLKISHARATRLAAAANAQNPTPSRARTSDAQAQQPAAASPKPPAEPVAAEPKKKRAKKATPVEAGLPPLTGKITGGHACAFDVVGESYYQPALRRLRNGRHMATDNDFVADIVAEPDNPHDPNACAVYIEGFKVGYLPRDAAADFQQQVADMGVTGTWRLQTKAKLSGGWGDRPMVGVLLSLPKSLEHHHHHH”, the “soluble on expression in E. coli” value is “not soluble”. The entry for “MSLVSVIILASGNSQRMGQNKLFLKYQGKTFLEHTLTLVNQLDVLERILVVSPENQPAFPLPKNIQLILNHQWQEGQSSSIRLGTEQARGAGYLYLPSDQPLLTPKMLQLVLDKCQRNKIVVPLQKDGCPSSPVLFGNQFRQELLTLTGEKGGRMIYERFPEAVQMLRIATPGRLKDIDTPEEYQKLIQETNSLEHHHHHH” is “not soluble”; for “MHEYELNQDLLAENKRLAEKNREALRESGTVAVNIMGAIGSGKTLLIERTIERIGNEVKIGAMLGDVVSKADYERVRRFGIKAEAISTGKECHLDAHMIYHRLKKFSDCDLLLIENVGNLICPVDFDLGENYRVVMVSVTEGDDVVEKHPEIFRVADLIVINKVALAEAVGADVEKMKADAKLINPRAKIIEMDLKTGKGFEEWIDFLRGILNVHSDSGQN” it is “not soluble”. As to “MTFRYRGPSPKGDQPKAIAGLVEALRDGERFVTLLGATGTGKTVTMAKVIEALGRPALVLAPNKILAAQLAAEFRELFPENAVEYFISYYDYYQPEAYVPGKDLYIEKDASINPEIERLRHSTTRSLLTRRDVIVVASVSAIYGLGDPREYRARNLVVERGKPYPREVLLERLLELGYQRNDIDLSPGRFRAKGEVLEIFPAYETEPIRVELFGDEVERISQVHPVTGERLRELPGFVLFPATHYLSPEGLEEILKEIEKELWERVRYFEERGEVLYAQRLKERTLYDLEMLRVMGTCPGVENYARYFTGKAPGEPPYTLLDYFPEDFLVFLDESHVTVPQLQGMYRGDYARKKTLVDYGFRLPSALDNRPLRFEEFLERVSQVVFVSATPGPFELAHSGRVVEQIIRPTGLLDPLVRVKPTENQILDLMEGIRERAARGERTLVTVLTVRMAEELTSFLVEHGIRARYLHHELDAFERQALIRDLRLGHYDCLVGINLLREGLDIPEVSLVAILDADKEGFLRSERSLIQTIGRAARNARGEVWLYADRVSEAMQRAIEETNRRRALQEAYNLEHGITPETVRKEVRAVIRPEGYEEAPLEADLSGEDLRERIAELELAMWQAAEALDFERAARLRDEIRALEARLQGVRAPEPVPGGRKRKRR”, the “soluble on expression in E. coli” value is reported as “soluble”.

Consider “ISDVKFTVRGNITYSKNEIIERDEENNVYAYQMKKGYRVNQNRGLIALGLFKDYDDIRNSPTQKYGPVMPGDIKYKDVNGDGVVNDGDIVAIGSTSKPNLIYGLGLSATWKGLDVSLHFQGAGKSQFFTYGKCIWAFTEGQWGNILKGTLDNRWVDAETAQKLGIPANENPNASYPRLSYTDNGNGNTTIYEYKNNYRNSTYWLRNGSYVRLKTIDVGYTLPKKIVNKIHFNNVRIFMTGTNLLTWSSFKLWDPEMGASRGEQYPLAKSITLGLSVNL”, for which the “soluble on expression in E. coli” value is “not soluble”. In the case of “EIGYYEWAIENDEMHCNSLYKKIFGFSDAHDPTYKEFTSQIFPKDLSVRNNAVQRAILVGGVYNAEYRVRHPNDELRWVKSFGKAIYDEKGKPVKLIGMILD” it was “not soluble”.

For “MGSDKIHHHHHHMKYYYKDGEGFNSKGVFIRVGSTKRVASFDEIQRMIRSHSSNDFELISIDRDDLTFEYIESRFKEKGIKFDVYALSLIGKDNKYNNAALLLSDQNPTISKFAVFQGTDVSVFLDKKEFTGSILKQLDEILYFASLSNRKRITISGKPGREEYLDIPKRALREAIVNCYCHRDYTLSGDVKIEFYDDRVQIFSPGSLPDGLTLENIKMGMVAKRNKIIVNTLDKIDVIENYASGVRRIFEDYADFTKQPEYYISNNGVIVTLFNRNYEAQNEAQNEAQILKLDNQKRIEKILELIKENKNITRSNLKDILGVSKSTIERDISKLKEEDKLEYIGSSRNGYWKVKNN”, the “soluble on expression in E. coli” value is “not soluble”. In the case of “MTGFKVSSFFYILALSRFFNAGRERACDKLKITVTHLYWFIIRKLLLHEVHVHVSRVCNVSFILSPCLFRNFFTLSLHVLYVMYEQALTPEFFRQWWDIIQSK” it was “soluble”. The entry for “GSSWSAINPEYAARMRIQNRFKTGLDIAKYTAAIMRKDMAEYDADSSVYTQSLGCWHGFIGQQKLISIKKHLKTTNKRYLYLSGWMVAALRSDFGPLPDQSMHEKTAVSGLIEELYTFLRQADARELDLLFTGLDAARAAGDKAKEAELLAQIDNFETHVVPIIADIDAGFGNAEATYLLAKKMIEAGACCIQIENQVSDEKQCGHQDGKVTVPHIDFLAKINAVRYAFLELGVDDGVIVARTDSLGAGLTKQIAVTNEPGDLGDLYNSFLDCEEISESELGNGDVVIKREGKLLRPKRLASNLFQFRKGTGEDRCVLDCITSLQNGADLLWIETEKPHVGQIKAMVDRIREVIPNAKLVYNNSPSFNWTLNFRQQVFDAFVAEGKDVSAYDRNKLMSVEYDDTELAKVADEKIRTFQRDGSAHAGIFHHLITLPTYHTAALSTDNLAKGYFADEGMLAYVKGVQRQELRQGIACVKHQNMAGSDIGDNHKEYFAGEAALK” is “not soluble”; for “MAHHHHHHMALSSSGSAALGDRIARAAAAAPQWTAQQRCFRQLLKSLRGAYFHDRSKLFWARHRILVEFYKYSRVEEERDVLLLVGIGNEIATFVAEYMKVDVGAIMEHNKKIQSLPVAKAKRYREEYLLHEKQHESWCKQKIRLMMDRRPPPPYPFS” it is “not soluble”; for “MNKAPHETRVVVGMSGGVDSSVAALLLKEQGYDVIGIFMKNWDDTDENGVCTATEDYEDVVRVCNQIGIPYYAVNFEKQYWDKVFTYFLNEYKAGRTPNPDVMCNKEIKFKAFLEHAMSIGADYIATGHYARVEFRDGEYKMLRGADPNKDQTYFLNQLGQAQLSKVMFPIGHLQKADVRRIAKEAGLATAGKKDSTGICFIGERDFKEFLSHYLPAQPGVMKTLDGEVKGRHDGVMYYTIGQRHGLGIGGSGEPWFVVGKDVRENVLYVAQGFENEYLYSTSLKAVDVNWVSDRKPEAPFRCTAKFRYRQPDVGVTVHPLADGGVEVVFDAPARAVTPGQAVVFYNGEECLGGGTIDEVFRNGEKLWYVG” it is “not soluble”. The entry for “MSLVTLADANPAQLAPFAGGAFEVAPLDVADEAALTVFLTRQDIVVSACPYFLNKTIARVAVATGTHYFDLTEDVETTAFIKALGETADVALVPQCGLAPGFICILGADMAARFERVKSVKMRVGALPLYPTNALSYNVTWSVDGLINEYCNPCEIVFEGRPTLVPALEGLEHVMIDGVSYEAFNTSGGLGTLTETLDGRVSDLSYKTLRYPGHAEIMKLLLRGLELADDRETLRRILNRAAPFTRKDVVVVFVEGHHHHHH” is “not soluble”; for “MGKRIAFWFEFASTYSYLSAMRIERAAADLGVTIAWEPFLLGPIFAAQGWTSSPFNLFPAKGRYMWRDMERLCARQGLPLTRPDPFPQNGLPAARLAMVAREMGHIAPFVRAVYAAQFGRGLVISDPQVLAECWAEAGLPPEAMEQAKSPEIKAALFAQGERAAALDLFGAPSFVVGEEVFWGDDRLDQALALAAQS” it is “soluble”.

Values taken from the DeepSol protein solubility set.
